From patent US20140357844A1 (RINAT NEUROSCIENCE, published 2014)
Numbering of substitutions follows the chain as printed. Names may count otherwise. “And” between values parts separate entries of the source, which are not always exact repeats. Identical values can stand only once.

Tests used:
[1] = biological target: T1, Trop-2 on Trop-2 expressing tumor cells (human, UniProt P09758 27-323); assay: cell-based or functional assay
T1 sequence: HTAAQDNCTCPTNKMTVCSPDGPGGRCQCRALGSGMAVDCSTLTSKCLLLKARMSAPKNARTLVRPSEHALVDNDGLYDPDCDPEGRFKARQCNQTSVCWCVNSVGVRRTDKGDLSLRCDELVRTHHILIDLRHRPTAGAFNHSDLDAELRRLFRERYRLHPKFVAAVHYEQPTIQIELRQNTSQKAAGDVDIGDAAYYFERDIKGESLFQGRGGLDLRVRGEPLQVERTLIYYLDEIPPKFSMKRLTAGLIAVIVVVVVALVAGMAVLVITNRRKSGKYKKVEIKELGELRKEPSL

[2] = biological target: T2, cynomolgus monkey Trop-2-hFc (cynomolgus monkey, UniProt A0A2K5UE71 27-274); assay: SPR (Biacore T200), cynomolgus Trop-2-hFc captured by anti-human Fc, Fab as analyte
T2 construct: also called cynoTrop-2; not shown: human Fc
T2 sequence: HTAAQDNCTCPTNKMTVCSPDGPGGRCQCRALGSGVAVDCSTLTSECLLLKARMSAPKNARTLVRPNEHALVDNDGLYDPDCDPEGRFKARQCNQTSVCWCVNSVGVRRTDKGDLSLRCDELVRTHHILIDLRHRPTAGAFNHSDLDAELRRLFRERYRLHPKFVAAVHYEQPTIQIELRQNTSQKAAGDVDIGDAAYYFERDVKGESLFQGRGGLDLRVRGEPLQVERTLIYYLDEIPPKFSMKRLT

[3] = biological target: T1, Trop-2 on Trop-2 expressing tumor cells; assay: cell-based or functional assay; remark: listed apart in the source
[4] = biological target: T3, monovalent human Trop2-ECD antigen (human, UniProt P09758 27-274); assay: SPR (ProteOn XPR36), amine-coupled Fab, monovalent human Trop2-ECD as analyte, 25 C;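 note: GLC sensor chip, 3 min association then 15 min buffer dissociation, kinetics fit with a 1:1 Langmuir model, buffer of 10 mM sodium phosphate with 150 mM NaCl and 0.05% Tween-20 at pH 7.4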
T3 construct: also called human Trop2-ECD (Extracellular Domain)
T3 sequence: T2 sequence with V36M, E46K, N67S, V204I
Experimental: Analysis of Fab/human Trop2-ECD (Extracellular Domain) interactions was performed using a Bio-Rad Proteon XPR36Surface Plasmon Resonance (SPR) biosensor (Bio-Rad, Hercules, Calif.) equipped with a GLC sensor chip. The assay temperature was 25° C., and the assay buffer was 10 mM Sodium Phosphate, 150 mM NaCl, 0.05% Tween-20, pH 7.4. […] In each analysis cycle, monovalent human Trop2-ECD antigen was flowed at 30 μL/min over the immobilized Fabs for 3 minutes followed by a buffer wash for 15 minutes to monitor dissociation of the Fab/Trop2 complex. The sensor surface was regenerated between analysis cycles, using three 18-second injections of a 2:1 mixture (by volume) of Pierce IgG Elution buffer:4 M NaCl (Pierce, Rockford, Ill.). […] The resulting data were fit to a 1:1 Langmuir binding model using the Proteon evaluation software.

B1: 6G11-TG1-vcMMAD (AcLys-vcMMAD conjugate) (antibody, V domains shown)
VH: QVQLQQPGAELVRPGASVKLSCKASGYTFTSYWINWVKQRPGHGLEWIGNIYPSDSYSNYNQKFKDKATLTVDKSSSTAYMQVSSPTSEDSAVYYCTYGSSFDYWGQGTTVTVSS
VL: DILLTQSPAILSVSPGERVSFSCRASQTIGTSIHWYQQRTNGSPRLLIKYASESISGIPSRFSGSGSGTDFTLSINSVESEDIADYYCQQSNSWPFTFGSGTKLEIK
Ab-IC50, cell viability (CellTiter-Glo, 96 h), A431 (Trop-2+++) [1]: 0.03 µg/mL and 0.197 nM | Ab-IC50, cell viability (CellTiter-Glo, 96 h), Colo205 (Trop-2+) [1]: 0.379 µg/mL and 2.52 nM

B2: chimeric 7E6 recombinant Fab fragment (Fab, V domains shown)
VH: QVQLKESGPGLVAPSQSLSITCTVSGFSLTSYGVHWVRQPPGKGLEWLGVIWTGGSTDYNSALMSRLSINKDNSKSQVFLKMNSLQTDDTAMYYCARDGDYDRYTMDYWGQGTSVTVSS
VL: DIVLTQSPASLAVSLGQRATISCRASKSVSTSGYSYMHWYQQKPGQPPKLLIYLASNLESGVPARFSGSGSGTDFTLNIHPVEEEDAATYYCQHSRELPYTFGGGTKLEIK
notes: Recombinant chimeric Fab; also called mouse7E6
Kd [2]: 16.5 nM

B3: h7E6SVG-N297Q/K222R-PEG6MMAD (antibody, V domains shown)
VH: QVQLQESGPGLVKPSETLSLTCTVSGGSISSYGVHWIRQPPGKGLEWIGVIWTSGVTDYNSALMGRVTISVDTSKNQFSLKLSSVTAADTAVYYCARDGDYDRYTMDYWGQGTLVTVSS
VL: DIVMTQSPDSLAVSLGERATINCRASKSVSTSGYSYMHWYQQKPGQPPKLLIYLASNLESGVPDRFSGSGSGTDFTLTISSLQAEDVAVYYCQHSRELPYTFGQGTKLEIK
modifications: N297Q/K222R mutations in the CH2/Hinge domains of heavy chain; conjugated with PEG6-MMAD
Ab IC50, cell viability (CellTiter-Glo, 96 h), A431 (Trop2 +++) [3]: 0.07 nM | Ab IC50, cell viability (CellTiter-Glo, 96 h), BxPC3 (Trop2 ++) [3]: 0.03 nM | Ab IC50, cell viability (CellTiter-Glo, 96 h), Calu-3 (Trop2 ++) [3]: 0.5 nM | Ab IC50, cell viability (CellTiter-Glo, 96 h), Colo205 (Trop2 +) [3]: 21.1 nM | Ab IC50, cell viability (CellTiter-Glo, 96 h), MDA-MB-468 (Trop2 ++) [3]: 0.19 nM | Ab IC50, cell viability (CellTiter-Glo, 96 h), NCI-H292 (Trop2 ++) [3]: 0.03 nM | Ab IC50, cell viability (CellTiter-Glo, 96 h), NCI-H1650 (Trop2 ++) [3]: 0.38 nM | Ab IC50, cell viability (CellTiter-Glo, 96 h), OVCAR3 (Trop2 +++) [3]: 0.98 nM | Ab IC50, cell viability (CellTiter-Glo, 96 h), SKBR3 (Trop2 +/++) [3]: 0.08 nM

B4: h7E6-SVGN-TG1-vcMMAD (AcLys-vcMMAD conjugate) (antibody, V domains shown)
VH: B3 VH
VL: B3 VL with G33N
Ab-IC50, cell viability (CellTiter-Glo, 96 h), A431 (Trop-2+++) [1]: 0.023 µg/mL and 0.153 nM | Ab-IC50, cell viability (CellTiter-Glo, 96 h), BxPC3 (Trop-2++) [1]: 0.051 µg/mL and 0.337 nM | Ab-IC50, cell viability (CellTiter-Glo, 96 h), CAPAN-2 (Trop-2+/++) [1]: 2.01 µg/mL and 13.4 nM | Ab-IC50, cell viability (CellTiter-Glo, 96 h), Colo205 (Trop-2+) [1]: 0.083 µg/mL and 0.552 nM

B5: h7E6-WT-TG1-vcMMAD (AcLys-vcMMAD conjugate) (antibody, V domains shown)
VH: B3 VH with S54G, V56S, G65S
VL: B3 VL
Ab-IC50, cell viability (CellTiter-Glo, 96 h), A431 (Trop-2+++) [1]: 0.022 µg/mL and 0.144 nM | Ab-IC50, cell viability (CellTiter-Glo, 96 h), BxPC3 (Trop-2++) [1]: 0.025 µg/mL and 0.169 nM | Ab-IC50, cell viability (CellTiter-Glo, 96 h), CAPAN-2 (Trop-2+/++) [1]: 1.96 µg/mL and 13 nM | Ab-IC50, cell viability (CellTiter-Glo, 96 h), Colo205 (Trop-2+) [1]: 0.445 µg/mL and 2.97 nM

B6: h7E6SVG-K222R-LCQ3-AcLys-vc-PABC-MMAD (antibody, human IgG1, V domains shown)
VH: B3 VH
VL: B3 VL
Ab-IC50, cell viability (CellTiter-Glo, 96 h), A431 (Trop-2+++) [1]: 0.01 µg/mL and 0.07 nM | Ab-IC50, cell viability (CellTiter-Glo, 96 h), BxPC3 (Trop-2++) [1]: 0.014 µg/mL and 0.092 nM | Ab-IC50, cell viability (CellTiter-Glo, 96 h), Colo205 (Trop-2+) [1]: 2.68 µg/mL and 17.9 nM

B7: h7E6SVG-LCQ04/K222R-vc0101 (antibody, human IgG1, V domains shown)
VH: B3 VH
VL: B3 VL
modifications: AcLys-vc-PABC-0101 on tag LCQ04 (SEQ ID NO: 79 as printed) at the C-terminus of the light chain; K222R in the heavy chain constant region
Ab IC50, cell viability (CellTiter-Glo, 96 h), BxPC3 (Trop2 ++) [3]: 0.11 nM | Ab IC50, cell viability (CellTiter-Glo, 96 h), Calu-3 (Trop2 ++) [3]: 1.51 nM | Ab IC50, cell viability (CellTiter-Glo, 96 h), NCI-H292 (Trop2 ++) [3]: 1.84 nM

B8: h7E6SVG-TG6-AcLys-vc-PABC-MMAD (antibody, human IgG1, V domains shown)
VH: B3 VH
VL: B3 VL
Ab-IC50, cell viability (CellTiter-Glo, 96 h), A431 (Trop-2+++) [1]: 0.011 µg/mL and 0.072 nM | Ab-IC50, cell viability (CellTiter-Glo, 96 h), BxPC3 (Trop-2++) [1]: 0.032 µg/mL and 0.214 nM | Ab-IC50, cell viability (CellTiter-Glo, 96 h), Colo205 (Trop-2+) [1]: 0.209 µg/mL and 1.39 nM

B9: h7E6SVG-TG6-vc0101 (antibody, human IgG1, V domains shown)
VH: B3 VH
VL: B3 VL
modifications: AcLys-vc-PABC-0101 on tag TG6 (LLQGA, SEQ ID NO: 79) at the C-terminus of the heavy chain
Ab IC50, cell viability (CellTiter-Glo, 96 h), A431 (Trop2 +++) [3]: 0.12 nM | Ab IC50, cell viability (CellTiter-Glo, 96 h), BxPC3 (Trop2 ++) [3]: 0.32 nM | Ab IC50, cell viability (CellTiter-Glo, 96 h), Calu-3 (Trop2 ++) [3]: 0.53 nM | Ab IC50, cell viability (CellTiter-Glo, 96 h), Colo205 (Trop2 +) [3]: 32.9 nM | Ab IC50, cell viability (CellTiter-Glo, 96 h), MDA-MB-468 (Trop2 ++) [3]: 0.77 nM | Ab IC50, cell viability (CellTiter-Glo, 96 h), NCI-H292 (Trop2 ++) [3]: 0.63 nM | Ab IC50, cell viability (CellTiter-Glo, 96 h), NCI-H1650 (Trop2 ++) [3]: 1.92 nM | Ab IC50, cell viability (CellTiter-Glo, 96 h), OVCAR3 (Trop2 +++) [3]: 0.56 nM | Ab IC50, cell viability (CellTiter-Glo, 96 h), SKBR3 (Trop2 +/++) [3]: 0.42 nM

B10: h7E6-N-TG1-vcMMAD (AcLys-vcMMAD conjugate) (antibody, V domains shown)
VH: B3 VH with S54G, V56S, G65S
VL: B3 VL with G33N
Ab-IC50, cell viability (CellTiter-Glo, 96 h), A431 (Trop-2+++) [1]: 0.024 µg/mL and 0.163 nM | Ab-IC50, cell viability (CellTiter-Glo, 96 h), CAPAN-2 (Trop-2+/++) [1]: 2.02 µg/mL and 13.5 nM | Ab-IC50, cell viability (CellTiter-Glo, 96 h), Colo205 (Trop-2+) [1]: 0.1 µg/mL and 0.668 nM

B11: h7E6-SVG-TG1-vcMMAD (Aminocapryl-vcMMAD conjugate) (antibody, V domains shown)
VH: B3 VH
VL: B3 VL
Ab-IC50, cell viability (CellTiter-Glo, 96 h), BxPC3 (Trop-2++) [1]: 0.034 µg/mL and 0.229 nM

B12: h7E6-L-TG1-vcMMAD (AcLys-vcMMAD conjugate) (antibody, V domains shown)
VH: B3 VH with S54G, V56S, G65S
VL: B3 VL with G33L
Ab-IC50, cell viability (CellTiter-Glo, 96 h), A431 (Trop-2+++) [1]: 0.02 µg/mL and 0.132 nM | Ab-IC50, cell viability (CellTiter-Glo, 96 h), BxPC3 (Trop-2++) [1]: 0.035 µg/mL and 0.232 nM | Ab-IC50, cell viability (CellTiter-Glo, 96 h), CAPAN-2 (Trop-2+/++) [1]: 2.03 µg/mL and 13.5 nM | Ab-IC50, cell viability (CellTiter-Glo, 96 h), Colo205 (Trop-2+) [1]: 0.082 µg/mL and 0.549 nM

B13: h7E6SVG-LCQ03/K222R-vc0101 (antibody, human IgG1, V domains shown)
VH: B3 VH
VL: B3 VL
modifications: AcLys-vc-PABC-0101 on tag LCQ03 (SEQ ID NO: 78) at the C-terminus of the light chain; K222R in the heavy chain constant region
Ab IC50, cell viability (CellTiter-Glo, 96 h), A431 (Trop2 +++) [3]: 0.03 nM | Ab IC50, cell viability (CellTiter-Glo, 96 h), BxPC3 (Trop2 ++) [3]: 0.13 nM | Ab IC50, cell viability (CellTiter-Glo, 96 h), Colo205 (Trop2 +) [3]: 174 nM

B14: h7E6-SVGL-TG1-vcMMAD (AcLys-vcMMAD conjugate) (antibody, V domains shown)
VH: B3 VH
VL: B3 VL with G33L
Ab-IC50, cell viability (CellTiter-Glo, 96 h), A431 (Trop-2+++) [1]: 0.018 µg/mL and 0.12 nM | Ab-IC50, cell viability (CellTiter-Glo, 96 h), CAPAN-2 (Trop-2+/++) [1]: 2.44 µg/mL and 16.3 nM | Ab-IC50, cell viability (CellTiter-Glo, 96 h), Colo205 (Trop-2+) [1]: 0.052 µg/mL and 0.345 nM

B15: h7E6_SVG30 Fab (Fab, V domains shown)
VH: B3 VH with G99E
VL: B3 VL
notes: also called DE (h7E6_SVG30)
Kd [4]: > 75 nM | koff [4]: 0.064 s⁻¹ | kon [4]: < 850000 M⁻¹ s⁻¹ | t1/2 [4]: 0.18 min

B16: h7E6_SVG19 Fab (Fab, V domains shown)
VH: B3 VH with G99S
VL: B3 VL
notes: also called DS (h7E6_SVG19)
Kd [4]: > 75 nM | koff [4]: 0.045 s⁻¹ | kon [4]: < 600000 M⁻¹ s⁻¹ | t1/2 [4]: 0.26 min

B17: h7E6_SVG22 Fab (Fab, V domains shown)
VH: B3 VH with G99A
VL: B3 VL
notes: also called DA (h7E6_SVG22)
Kd [4]: > 75 nM | koff [4]: 0.013 s⁻¹ | kon [4]: < 180000 M⁻¹ s⁻¹ | t1/2 [4]: 0.86 min

B18: h7E6_SVG28 Fab (Fab, V domains shown)
VH: B3 VH with G99L
VL: B3 VL
notes: also called DL (h7E6_SVG28)
Kd [4]: > 75 nM | koff [4]: 0.016 s⁻¹ | kon [4]: < 210000 M⁻¹ s⁻¹ | t1/2 [4]: 0.72 min

B19: h7E6_SVG20 Fab (Fab, V domains shown)
VH: B3 VH with G99K
VL: B3 VL
notes: also called DK (h7E6_SVG20)
Kd [4]: > 75 nM | koff [4]: 0.013 s⁻¹ | kon [4]: < 170000 M⁻¹ s⁻¹ | t1/2 [4]: 0.88 min
